Target: T1, recombinant IsaA protein of Staphylococcus aureus (29 kDa immunodominant antigen IsaA) (Staphylococcus aureus, UniProt Q2FV52 30-233, limits assumed)
T1 construct: Coated as rIsaA in the ELISA; In the first SPR experiment it was N-biotinylated with sulfo-NHS-LC-biotin (mostly at a single site) and immobilised on streptavidin; In the second SPR experiment it was the analyte in solution; also called rIsaA; 29 kDa IsaA antigen
T1 sequence (looked up): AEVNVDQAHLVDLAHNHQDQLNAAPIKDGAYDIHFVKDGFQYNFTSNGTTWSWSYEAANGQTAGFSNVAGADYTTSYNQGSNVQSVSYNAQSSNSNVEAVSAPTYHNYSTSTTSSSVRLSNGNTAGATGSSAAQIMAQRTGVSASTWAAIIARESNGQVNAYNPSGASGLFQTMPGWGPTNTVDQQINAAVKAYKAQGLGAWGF
Test: SPR (BIACORE 2000), biotinylated IsaA on streptavidin chip, antibody as analyte; off rate set to 10^-5 sec^-1; off rate set to 10^-5 sec^-1
Method: The amount of the immobilized antigen corresponds to about 100 resonance units [RU] measured by means of the BIACORE®2000 system.
Interaction analyses were performed using HBS150 buffer (10 mM HEPES pH7.4, 150 mM NaCl, 3.4 mM EDTA). Sensorgrams were recorded at a flow rate of 10 μl/min at 25° C. The association and dissociation time was set to 10 min. The chips were regenerated after each cycle with different regeneration solutions (A: 1 mM CH₃COOH, 1 M NaCl, pH 3; B: 4 M MgCl₂; C: 1 mM CH₃COOH, 1 M NaCl, 6 M Urea, pH 3) for 2 min.
Since the evaluation of the kinetic rate constant is limited to 10⁻⁵ sec⁻¹ the observed off-rate has to be smaller than that value.

B1: monoclonal antibody MAB-UK-66 secreted by hybridoma cell line DSM ACC2987 (antibody, V domains shown)
VH: DVKLVESGGGLVKLGGSLKLSCSASGFTFSNYYMSWVRQTPEKRLELVADINGNGGSTYYPDTVKGRFTISRDNAKNTLYLQMSSLKSEDTALYYCVRRGGYYALDYWGQGTTVTVSS
VL: DVVMTQTPLSLPVSLGDQASISCRSSQSLVHINGNTYLHWYLQKPGQSPKLLIYRVSNRFSGVPDRFSGSGSGTDFTLKISRVEAEDLGVYFCSQSTHVPWTFGGGTKLELKR
notes: Monoclonal mouse antibody from a hybridoma; Detected with anti-mouse IgG; also called antibodies secreted by cell line DSM ACC2987; anti-IsaA MAB
Which results are given for B1?
Kd: ≤ 0.018 nM; kon: 560000 M⁻¹ s⁻¹
